Experimental data reported in patent publication US20230363362A1, “GENETICALLY MODIFIED NON-HUMAN ANIMAL WITH HUMAN OR CHIMERIC GLP1R” (Biocytogen Pharmaceuticals (Beijing) Co., Ltd., priority 2020, published 2023).

Tests used:
human GLP1R [1] = molecular target: T1, human GLP1R (Homo sapiens, UniProt P43220); assay: In vivo drug efficacy experiment (Example 2), GLP1R gene humanized homozygous mice; parameters: species or system mouse
T1 construct: 61-1452; 1-463; expressed in transfected cells; host or cells: GLP1R gene humanized homozygous mice (C57BL/6 ES cells); The human CDS is inserted into mouse exon 1 at the endogenous Glp1r locus, under mouse regulatory elements
Description: (§1) Ten 7-week-old male wild-type C57BL/6 mice (WT) and ten GLP1R gene humanized homozygous mice (H/H) were selected, and randomly divided (according to body weight) into control group (G1, G3) and administration Group (G2, G4). The control group was injected subcutaneously (s.c.) phosphate buffered saline (PBS). The administration group was injected subcutaneously with 10 mg/kg GLP1R agonist Dulaglutide, administered once every two days, with a total of 5 administrations. Before each administration, the body weight and non-fasting blood glucose concentration of the mice were measured. After the second and fourth doses, the mice were fasted overnight, and the glucose tolerance test (IPGTT) was used to evaluate the tolerance of the mice to glucose by intraperitoneal injection of 2 g/kg glucose D-Glucose. Blood was collected to determine the blood glucose value at 15 min, 30 min, 60 min, 120 min after injection, and the area under the curve (AUC) was calculated.

mouse GLP1R [2] = molecular target: T2, mouse GLP1R (Mus musculus, UniProt O35659); assay: High-fat diet induced obesity model (Example 3), wild-type C57BL/6 mice; format: in vivo; parameters: Ten 7-week-old male wild-type C57BL/6 mice (WT); endogenous in cells; host or cells: wild-type C57BL/6 mice (whole animal, in vivo)
T2 sequence (O35659 22-463): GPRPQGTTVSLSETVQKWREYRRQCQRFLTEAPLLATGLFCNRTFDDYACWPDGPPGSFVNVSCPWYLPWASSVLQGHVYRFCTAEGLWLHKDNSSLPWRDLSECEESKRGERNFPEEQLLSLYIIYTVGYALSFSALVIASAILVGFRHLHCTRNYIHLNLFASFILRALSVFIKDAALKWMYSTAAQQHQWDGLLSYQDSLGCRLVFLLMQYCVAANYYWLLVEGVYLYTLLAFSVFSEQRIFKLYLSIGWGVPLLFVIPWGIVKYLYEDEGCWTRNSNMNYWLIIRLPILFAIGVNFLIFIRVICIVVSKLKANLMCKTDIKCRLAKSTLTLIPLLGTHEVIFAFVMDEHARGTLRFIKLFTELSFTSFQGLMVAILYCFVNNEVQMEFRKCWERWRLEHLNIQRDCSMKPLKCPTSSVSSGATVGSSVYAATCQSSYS
Description: (§2) Twenty 7-week-old male wild-type C57BL/6 mice (WT) and twenty GLP1R humanized homozygous mice (I/H) were selected. All mice were given a high-fat diet for 12 weeks to induce obesity and high blood sugar.
(§3) On the 13th week, the mice were grouped and administered either Dulaglutide or PBS according to Table 5. The day of grouping was recorded as DO, the next day was recorded as D1, and so on for calculation. When a mouse lost more than 20% of its body weight, it was euthanized to end the experiment. The administration group was given 1 mg/kg Dulaglutide by subcutaneous injection (sc), and the control group was given the same dose of control PBS, once every two days, with a total of 5 administrations. The test protocol is as follows: the random blood glucose (RBG) concentration and body weight were measured before each administration; the mice were fasted after the second administration, and the glucose tolerance test ([…]) was carried out the next day (protocol: after the fasting blood glucose was tested, 2 g/kg D-glucose was injected intraperitoneally, and blood glucose was measured at 15 min, 30 min, 60 min and 120 min after injection; the glucose solution was prepared at the ratio of 20% mass fraction, the administration dose was 10 ul/g body weight, and the solvent was physiological saline). After the fourth administration, the mice were fasted, and the fasting blood glucose was measured on the second day; blood was collected from the canthus within 48 hours after the last administration, and the supernatant was obtained by centrifugation. The levels of serum glucagon and insulin were determined by ELISA.

human GLP1R [3] = molecular target: T1, human GLP1R; conditions: background statement, no test described; cited from earlier work
mouse GLP1R [4] = molecular target: T2, mouse GLP1R; assay: In vivo drug efficacy experiment (Example 2), wild-type C57BL/6 mice; parameters: Ten 7-week-old male wild-type C57BL/6 mice (WT); endogenous in cells; host or cells: wild-type C57BL/6 mice (whole animal, in vivo)
Description: as §1

mouse GLP1R [5] = molecular target: T2, mouse GLP1R; conditions: background statement, no test described; cited from earlier work
human GLP1R [6] = molecular target: T1, human GLP1R; assay: High-fat diet induced obesity model (Example 3), GLP1R humanized homozygous mice; format: in vivo, mouse; conditions: G4 GLP1R humanized
Description: as §2, §3

T1 sequence (P43220 24-463): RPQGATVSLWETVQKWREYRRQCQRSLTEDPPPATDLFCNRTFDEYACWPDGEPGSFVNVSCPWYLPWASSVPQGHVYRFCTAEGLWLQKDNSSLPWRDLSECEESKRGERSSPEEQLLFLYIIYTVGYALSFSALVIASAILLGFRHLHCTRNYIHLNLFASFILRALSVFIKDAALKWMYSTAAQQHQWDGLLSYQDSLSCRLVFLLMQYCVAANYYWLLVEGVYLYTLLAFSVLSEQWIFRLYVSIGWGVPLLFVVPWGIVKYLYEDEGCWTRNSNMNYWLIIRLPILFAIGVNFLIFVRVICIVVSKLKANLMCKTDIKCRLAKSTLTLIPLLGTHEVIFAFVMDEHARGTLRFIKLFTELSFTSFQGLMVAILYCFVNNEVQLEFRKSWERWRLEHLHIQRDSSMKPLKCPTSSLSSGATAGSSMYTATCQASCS

fasting blood glucose (human GLP1R [1]; G4 H/H vs PBS control G3, fasted overnight, s.c. Q2d x 5, FIG. 13): reduced | non-fasting blood glucose (human GLP1R [1]; G4 H/H vs PBS control G3, s.c. Q2d x 5, 10 mg/kg / 1 mg/kg (Table 5), FIG. 12): reduced | area under the curve (AUC) of IPGTT (human GLP1R [1]; H/H mice, 2 g/kg D-Glucose i.p., blood glucose 15-120 min, P≤0.05, FIG. 15): significant downward trend | blood glucose (non-fasting) (mouse GLP1R [2]; G2 C57BL/6, high-fat diet, 1 mg/kg s.c. Q2d*5, FIG. 25): significantly reduced | food intake in the 24 hours after the first administration (mouse GLP1R [2]; G2 C57BL/6, high-fat diet, 1 mg/kg s.c., vs control group, FIG. 24B): significantly lower | plasma levels of glucagon (mouse GLP1R [2]; G2 C57BL/6, high-fat diet, 24 hours after the drug administration, FIG. 28): decreased | level of glucagon-like peptide-1 (mouse GLP1R [2]; G2 C57BL/6, high-fat diet, 24 hours after the drug administration, FIG. 29): significantly increased | insulin level (mouse GLP1R [2]; G2 C57BL/6, high-fat diet, Day 10, 15 min time point, vs control group, FIG. 27): tendency to increase | fasting blood glucose (mouse GLP1R [4]; G2 WT vs PBS control G1, fasted overnight, s.c. Q2d x 5, FIG. 13): reduced | non-fasting blood glucose (mouse GLP1R [4]; G2 WT vs PBS control G1, s.c. Q2d x 5, 10 mg/kg / 1 mg/kg (Table 5), FIG. 12): reduced | area under the curve (AUC) of IPGTT (mouse GLP1R [4]; WT mice, 2 g/kg D-Glucose i.p., blood glucose 15-120 min, P≤0.05, FIG. 15): significant downward trend | blood glucose (non-fasting) (human GLP1R [6]; high-fat diet, 1 mg/kg s.c. Q2d*5, FIG. 25): significantly reduced | food intake in the 24 hours after the first administration (human GLP1R [6]; high-fat diet, 1 mg/kg s.c., vs control group, FIG. 24B): significantly lower | level of glucagon-like peptide-1 (human GLP1R [6]; high-fat diet, 24 hours after the drug administration, FIG. 29): significantly increased | insulin level (human GLP1R [6]; high-fat diet, Day 10, 15 min time point, vs control group, FIG. 27): tendency to increase
Substance: Dulaglutide
body weight during the experiment (human GLP1R [1]; G4, H/H mice, s.c. Q2d x 5, 10 mg/kg / 1 mg/kg (Table 5), FIG. 11): remained stable and did not change significantly | body weight (mouse GLP1R [2]; G2 C57BL/6, high-fat diet 12 weeks, 1 mg/kg s.c. Q2d*5, vs PBS control, FIG. 23): decreased more significantly | glucose tolerance (glucose tolerance test) (mouse GLP1R [2]; G2 C57BL/6, high-fat diet, after second administration, fasted, 2 g/kg D-glucose i.p., FIG. 26): significantly improve | affinity for human GLP1R (human GLP1R [3]): has affinity | body weight during the experiment (mouse GLP1R [4]; G2, WT C57BL/6 mice, s.c. Q2d x 5, 10 mg/kg / 1 mg/kg (Table 5), FIG. 11): remained stable and did not change significantly | affinity for mouse GLP1R (mouse GLP1R [5]): has affinity | body weight (human GLP1R [6]; high-fat diet 12 weeks, 1 mg/kg s.c. Q2d*5, vs PBS control, FIG. 23): decreased more significantly | plasma levels of glucagon (human GLP1R [6]; high-fat diet, 24 hours after the drug administration, FIG. 28): decreased, and the decrease was more obvious | glucose tolerance (glucose tolerance test) (human GLP1R [6]; high-fat diet, after second administration, fasted, 2 g/kg D-glucose i.p., FIG. 26): significantly improve
